doi:10.1101/2023.11.29.569220, “Spartin-mediated lipid transfer facilitates lipid droplet turnover” (bioRxiv, 2023)
Blank lines part the entries; values can stand above or below the molecule they belong to.

Key:
Assay in all cases: native gel or EMSA; blue native PAGE, 4%-16% Bis-Tris gel, 4C, 1-2 ug protein purified in buffer A (50 mM HEPES, 500 mM NaCl, pH 8.0, 1 mM TCEP, 10% glycerol); migration according to MW against NativeMark standards
[1] = target: CeSpartin (C. elegans spartin) (C. elegans)
[2] = target: CtSpartinL (spartin-like protein from Chaetomium thermophilum) (Chaetomium thermophilum)
[3] = target: the molecule itself

stoichiometry N [1]: 3
Molecule: CeSpartin (C. elegans spartin) (natural protein)

stoichiometry N [2]: 3
Molecule: CtSpartinL (spartin-like protein from Chaetomium thermophilum) (natural protein)

B1: HsSpartin (human spartin, SPG20) (natural protein, UniProt Q8N0X7 1-666, looked up)
chain: MEQEPQNGEPAEIKIIREAYKKAFLFVNKGLNTDELGQKEEAKNYYKQGIGHLLRGISISSKESEHTGPGWESARQMQQKMKETLQNVRTRLEILEKGLATSLQNDLQEVPKLYPEFPPKDMCEKLPEPQSFSSAPQHAEVNGNTSTPSAGAVAAPASLSLPSQSCPAEAPPAYTPQAAEGHYTVSYGTDSGEFSSVGEEFYRNHSQPPPLETLGLDADELILIPNGVQIFFVNPAGEVSAPSYPGYLRIVRFLDNSLDTVLNRPPGFLQVCDWLYPLVPDRSPVLKCTAGAYMFPDTMLQAAGCFVGVVLSSELPEDDRELFEDLLRQMSDLRLQANWNRAEEENEFQIPGRTRPSSDQLKEASGTDVKQLDQGNKDVRHKGKRGKRAKDTSSEEVNLSHIVPCEPVPEEKPKELPEWSEKVAHNILSGASWVSWGLVKGAEITGKAIQKGASKLRERIQPEEKPVEVSPAVTKGLYIAKQATGGAAKVSQFLVDGVCTVANCVGKELAPHVKKHGSKLVPESLKKDKDGKSPLDGAMVVAASSVQGFSTVWQGLECAAKCIVNNVSAETVQTVRYKYGYNAGEATHHAVDSAVNVGVTAYNINNIGIKAMVKKTATQTGHTLLEDYQIVDNSQRENQEGAANVNVRGEKDEQTKEVKEAKKKDK
notes: Spartin (SPG20), human, Uniprot Q8N0X7, full-length; gene synthesized and cloned into pCMV10 with an N-terminal 3xFLAG tag; The Expi293 methods describe only elution with 3xFLAG peptide and no protease step; source: Expi293 cells, purified (anti-FLAG resin); not shown: 3xFLAG, N-terminal, cleaved
stoichiometry N [3]: ~3
